The values that follow come from patent US20080057519A1.

The target in experiment [1] is FLJ32028 with an HA epitope tag fused to the predicted C-terminal end of the protein (human) (UniProt Q6P9G4). Kind of experiment: flow cytometry on intact transfected 293-EBNA cells, streptavidin-PE detection.
Experiment [2] addresses FLJ32028 with an HA epitope tag inserted at the predicted N-terminal end of the protein (human) (UniProt Q6P9G4). The description is as above.

Regarding “biotinylated Rat Anti-HA antibody (Roche)”, the % of transfected GFP+ cells negative for HA in experiment [1] is 85%. Also, the % of transfected GFP+ cells positive for HA in experiment [2] is greater than 99%.
